Article PMC4267640

Molecular target: DNA polymerase alpha catalytic core (p180 core) (human, UniProt P09884 335-1257)
Assay: X-ray crystallography

DNA polymerase alpha catalytic core (p180 core), sequence (P09884 335-1257): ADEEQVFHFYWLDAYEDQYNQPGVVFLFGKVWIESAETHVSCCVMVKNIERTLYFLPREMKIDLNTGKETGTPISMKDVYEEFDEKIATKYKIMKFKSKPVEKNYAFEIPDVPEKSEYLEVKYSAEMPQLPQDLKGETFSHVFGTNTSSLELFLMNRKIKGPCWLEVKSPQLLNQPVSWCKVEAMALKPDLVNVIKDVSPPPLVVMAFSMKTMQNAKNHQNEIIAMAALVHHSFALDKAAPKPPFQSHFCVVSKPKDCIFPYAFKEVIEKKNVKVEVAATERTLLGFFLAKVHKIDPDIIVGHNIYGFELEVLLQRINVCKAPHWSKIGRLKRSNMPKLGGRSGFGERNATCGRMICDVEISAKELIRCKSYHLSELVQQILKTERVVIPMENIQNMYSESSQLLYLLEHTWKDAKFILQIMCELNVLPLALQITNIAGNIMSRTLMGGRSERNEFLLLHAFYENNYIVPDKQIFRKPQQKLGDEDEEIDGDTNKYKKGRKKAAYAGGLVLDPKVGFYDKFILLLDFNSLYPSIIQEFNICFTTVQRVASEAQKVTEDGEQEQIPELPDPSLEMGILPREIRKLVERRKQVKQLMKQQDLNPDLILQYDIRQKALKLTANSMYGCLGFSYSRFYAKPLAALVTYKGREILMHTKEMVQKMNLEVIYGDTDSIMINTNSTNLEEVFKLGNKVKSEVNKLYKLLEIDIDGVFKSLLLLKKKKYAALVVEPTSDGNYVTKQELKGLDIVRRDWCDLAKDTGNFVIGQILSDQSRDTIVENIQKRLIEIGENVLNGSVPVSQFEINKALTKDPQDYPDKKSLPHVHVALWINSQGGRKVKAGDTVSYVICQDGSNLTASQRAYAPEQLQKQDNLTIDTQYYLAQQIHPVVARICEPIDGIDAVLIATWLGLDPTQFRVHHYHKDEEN

B1: RNA-primed DNA template (DNA:RNA)
DNA: ATTACTATAGGCGCTCCAGGC
RNA: GCCUGGAGCGC
modifications: primer strand is RNA with a 3'-terminal dideoxycytidine (ddC)
- binding result: binds
